{"source": "paper PMC11338267", "about": "“Phosphoglycerate kinase is a central leverage point in Parkinson’s disease–driven neuronal metabolic deficits” (Science Advances, 2024)", "binders": {"B1": {"name": "His-tagged DJ-1 full-length protein (natural protein, UniProt Q99497 1-189, looked up)", "chain": "MASKRALVILAKGAEEMETVIPVDVMRRAGIKVTVAGLAGKDPVQCSRDVVICPDASLEDAKKEGPYDVVVLPGGNLGAQNLSESAAVKEILKEQENRKGLIAAICAGPTALLAHEIGFGSKVTTHPLAKDKMMNGGHYTYSENRVEKDGLILTSRGPGTSFEFALAIVEALNGKEVAAQVKAPLVLKD", "notes": "DJ-1 (product of the PARK7 gene), full-length protein; For MST the His tag was labelled non-covalently with the dye RED-tris-NTA; also called His-DJ-1; PARK7/DJ-1; source: E. coli BL21 (DE3), purified (Ni-NTA, Superdex200 gel filtration)"}}, "biological_target": "T1, untagged PGK1 (phosphoglycerate kinase 1), cleaved from His-SUMO-PGK1 (UniProt P00558 1-417)", "T1 construct": "phosphoglycerate kinase 1 (PGK1), full-length protein; also called His-tagged SUMO-PGK1; cleaved PGK1; source: E. coli BL21 (DE3), purified (Ni-NTA, SUMO protease cleavage, second Ni-NTA flow-through, Superdex200 gel filtration)", "T1 sequence (looked up)": "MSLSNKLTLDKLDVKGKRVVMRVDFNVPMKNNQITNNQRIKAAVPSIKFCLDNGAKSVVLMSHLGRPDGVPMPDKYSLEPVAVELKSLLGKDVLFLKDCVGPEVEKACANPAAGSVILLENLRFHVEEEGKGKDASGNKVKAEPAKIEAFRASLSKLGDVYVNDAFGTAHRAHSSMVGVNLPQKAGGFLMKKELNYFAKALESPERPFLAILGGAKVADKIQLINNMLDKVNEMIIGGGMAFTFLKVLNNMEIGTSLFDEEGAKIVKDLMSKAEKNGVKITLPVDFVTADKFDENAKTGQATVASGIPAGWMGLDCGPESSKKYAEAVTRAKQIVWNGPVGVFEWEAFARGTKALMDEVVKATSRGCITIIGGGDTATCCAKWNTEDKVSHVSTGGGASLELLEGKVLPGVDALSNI", "assay": "MST; His-DJ-1 labelled with RED-tris-NTA (10 ul of 100 nM added to each sample), PGK1 titrated in a 16-step 1:1 serial dilution from a 152 uM stock; PBS-T buffer; 30 min at room temperature in the dark; Monolith NT.115, 40% LED, medium MST power", "settings": "both partners purified"}
{"binder": "B1", "values": [{"measurement": "Kd", "result": "~15", "unit": "µM"}]}
